Assay results as given in article PMC5778602 (Nucleic Acids Research, 2017).
One block for each binder: values may come before it.

B2: full length GST-CstF-50 fusion protein (natural protein, human, UniProt Q05048 1-431, looked up)
chain: MYRTKVGLKDRQQLYKLIISQLLYDGYISIANGLINEIKPQSVCAPSEQLLHLIKLGMENDDTAVQYAIGRSDTVAPGTGIDLEFDADVQTMSPEASEYETCYVTSHKGPCRVATYSRDGQLIATGSADASIKILDTERMLAKSAMPIEVMMNETAQQNMENHPVIRTLYDHVDEVTCLAFHPTEQILASGSRDYTLKLFDYSKPSAKRAFKYIQEAEMLRSISFHPSGDFILVGTQHPTLRLYDINTFQCFVSCNPQDQHTDAICSVNYNSSANMYVTGSKDGCIKLWDGVSNRCITTFEKAHDGAEVCSAIFSKNSKYILSSGKDSVAKLWEISTGRTLVRYTGAGLSGRQVHRTQAVFNHTEDYVLLPDERTISLCCWDSRTAERRNLLSLGHNNIVRCIVHSPTNPGFMTCSDDFRARFWYRRSTTD
B6: CstF-77ΔN (domain or fragment, human, UniProt Q12996 241-717, looked up)
chain: NTPQEAQQVDMWKKYIQWEKSNPLRTEDQTLITKRVMFAYEQCLLVLGHHPDIWYEAAQYLEQSSKLLAEKGDMNNAKLFSDEAANIYERAISTLLKKNMLLYFAYADYEESRMKYEKVHSIYNRLLAIEDIDPTLVYIQYMKFARRAEGIKSGRMIFKKAREDTRTRHHVYVTAALMEYYCSKDKSVAFKIFELGLKKYGDIPEYVLAYIDYLSHLNEDNNTRVLFERVLTSGSLPPEKSGEIWARFLAFESNIGDLASILKVEKRRFTAFKEEYEGKETALLVDRYKFMDLYPCSASELKALGYKDVSRAKLAAIIPDPVVAPSIVPVLKDEVDRKPEYPKPDTQQMIPFQPRHLAPPGLHPVPGGVFPVPPAAVVLMKLLPPPICFQGPFVQVDELMEIFRRCKIPNTVEEAVRIITGGAPELAVEGNGPVESNAVLTKAVKRPNEDSDEDEEKGAVVPPVHDIYRARQQKRIR

What was measured:
[1] = molecular target: T1, WD40 domain of CstF-50 (human, UniProt Q05048 80-431); experiment: ITC
T1 sequence: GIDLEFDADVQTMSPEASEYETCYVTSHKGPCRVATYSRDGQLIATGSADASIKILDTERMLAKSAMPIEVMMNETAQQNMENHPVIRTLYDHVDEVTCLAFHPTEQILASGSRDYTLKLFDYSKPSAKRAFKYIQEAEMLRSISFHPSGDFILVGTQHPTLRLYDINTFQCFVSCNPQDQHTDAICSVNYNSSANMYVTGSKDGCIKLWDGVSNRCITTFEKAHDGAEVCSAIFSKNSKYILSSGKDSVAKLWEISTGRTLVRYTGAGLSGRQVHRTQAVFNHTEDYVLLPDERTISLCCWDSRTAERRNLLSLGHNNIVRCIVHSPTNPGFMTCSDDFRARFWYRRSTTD

[2] = molecular target: B6; experiment: pull-down
[3] = molecular target: B6; experiment: SEC
[4] = molecular target: B2; experiment: pull-down
[5] = molecular target: the molecule itself; experiment: SEC-MALS

- Kd [1]: ~200 nM
- stoichiometry N [1]: 1
B1: CstF-77 peptide (residues 581–600) (peptide, UniProt Q12996 581-600, looked up)
peptide: YPKPDTQQMIPFQPRHLAPP

Binder: B2
- binding result [2]: binds

- binding result [3]: binds
B3: CstF-50 (full length, affinity tag removed) (natural protein, human, UniProt Q05048 1-431, looked up)
chain: MYRTKVGLKDRQQLYKLIISQLLYDGYISIANGLINEIKPQSVCAPSEQLLHLIKLGMENDDTAVQYAIGRSDTVAPGTGIDLEFDADVQTMSPEASEYETCYVTSHKGPCRVATYSRDGQLIATGSADASIKILDTERMLAKSAMPIEVMMNETAQQNMENHPVIRTLYDHVDEVTCLAFHPTEQILASGSRDYTLKLFDYSKPSAKRAFKYIQEAEMLRSISFHPSGDFILVGTQHPTLRLYDINTFQCFVSCNPQDQHTDAICSVNYNSSANMYVTGSKDGCIKLWDGVSNRCITTFEKAHDGAEVCSAIFSKNSKYILSSGKDSVAKLWEISTGRTLVRYTGAGLSGRQVHRTQAVFNHTEDYVLLPDERTISLCCWDSRTAERRNLLSLGHNNIVRCIVHSPTNPGFMTCSDDFRARFWYRRSTTD

- binding result [4]: binds
B4: CstF-77 (residues 241–600) (domain or fragment, human, UniProt Q12996 241-600, looked up)
chain: NTPQEAQQVDMWKKYIQWEKSNPLRTEDQTLITKRVMFAYEQCLLVLGHHPDIWYEAAQYLEQSSKLLAEKGDMNNAKLFSDEAANIYERAISTLLKKNMLLYFAYADYEESRMKYEKVHSIYNRLLAIEDIDPTLVYIQYMKFARRAEGIKSGRMIFKKAREDTRTRHHVYVTAALMEYYCSKDKSVAFKIFELGLKKYGDIPEYVLAYIDYLSHLNEDNNTRVLFERVLTSGSLPPEKSGEIWARFLAFESNIGDLASILKVEKRRFTAFKEEYEGKETALLVDRYKFMDLYPCSASELKALGYKDVSRAKLAAIIPDPVVAPSIVPVLKDEVDRKPEYPKPDTQQMIPFQPRHLAPP

- binding result [4]: binds
B5: CstF-77 (residues 241–610) (domain or fragment, human, UniProt Q12996 241-610, looked up)
chain: NTPQEAQQVDMWKKYIQWEKSNPLRTEDQTLITKRVMFAYEQCLLVLGHHPDIWYEAAQYLEQSSKLLAEKGDMNNAKLFSDEAANIYERAISTLLKKNMLLYFAYADYEESRMKYEKVHSIYNRLLAIEDIDPTLVYIQYMKFARRAEGIKSGRMIFKKAREDTRTRHHVYVTAALMEYYCSKDKSVAFKIFELGLKKYGDIPEYVLAYIDYLSHLNEDNNTRVLFERVLTSGSLPPEKSGEIWARFLAFESNIGDLASILKVEKRRFTAFKEEYEGKETALLVDRYKFMDLYPCSASELKALGYKDVSRAKLAAIIPDPVVAPSIVPVLKDEVDRKPEYPKPDTQQMIPFQPRHLAPPGLHPVPGGVF

Binder: B6
- stoichiometry N [5]: 2
